Measurements as given in paper PMC11579453 (Nature Communications, 2024).
Numbering of substitutions follows the chain as printed. Where two headings read alike, the source gives them in different places. Blank lines part the entries; values can stand above or below the molecule they belong to.

Experiments:
Aβ42 amyloid fibrils = Aβ42 amyloid fibrils (UniProt P05067); assay: microfluidic diffusional sizing; Alexa647-labelled BRICHOS held constant (three concentrations a curve set), Aβ42 fibrils varied between 0.01 and 24 µM (monomer equivalents), incubated 48 h; global fit of Kd and stoichiometry
[1] = target: WT α-Synuclein amyloid fibrils (human) (UniProt P37840); assay: microfluidic diffusional sizing; Alexa647-labelled BRICHOS held constant (three concentrations a curve set), α-Syn fibrils varied between 0.01 and 24 µM (monomer equivalents), equilibrium within 2 hours; global fit of Kd and stoichiometry
[2] = target: WT α-Synuclein amyloid fibrils (human) (UniProt P37840); assay: single-molecule TIRF microscopy (single particle tracking); α-Syn fibrils immobilised on a glass coverslip, blocked with BSA; Atto647-labelled Var II added at 1-100 nM in PBS
[3] = target: WT α-Synuclein amyloid fibrils (human) (UniProt P37840); assay: microfluidic diffusional sizing; Alexa647-labelled BRICHOS held constant (three concentrations a curve set), α-Syn fibrils varied between 0.01 and 24 µM (monomer equivalents), equilibrium within 2 hours; global fit of Kd and stoichiometry; remark: listed apart in the source
[4] = target: WT α-Synuclein amyloid fibrils (human) (UniProt P37840); assay: NMR signal intensity ([15N,1H]-HMQC), competition; 100 µM 15N-labelled α-Syn monomer with 540 µM unlabelled α-Syn fibrils, 2 h at 4 °C, then unlabelled Var II added at 100, 300 or 500 µM, followed for ~120 min; 25 mM phosphate, 25 mM NaCl, pH ~6.8
[5] = target: T1, proSP-C BRICHOS (K114I, R139Q) (UniProt P11686 90-197, K114I | R139Q, Alexa647 label in the microfluidic diffusional sizing (site not stated); Atto647 succinimidyl ester (amine labelling) in the single-molecule microscopy; 15N labelled in the NMR binding experiments …); assay: NMR titration; 15N-labelled Var II, [15N,1H]-TROSY, peptide added at 100 µM to 2 mM; 25 mM phosphate, 25 mM NaCl, pH ~6.8, 2.5% DMSO, 303 K; details: both partners purified
T1 construct: BRICHOS domain of proSP-C, residues 90-197, with two salt-bridge mutations of the trimer interface; Monomer by light scattering, diffusional sizing and NMR structure; also called variant II; Var II; source: E. coli BL21(DE3*) pLysS, purified (Ni-NTA, TEV digestion, Ni chromatography, SEC); not shown: His tag, N-terminal, cleaved; NT* solubility tag, N-terminal, cleaved
T1 sequence (looked up): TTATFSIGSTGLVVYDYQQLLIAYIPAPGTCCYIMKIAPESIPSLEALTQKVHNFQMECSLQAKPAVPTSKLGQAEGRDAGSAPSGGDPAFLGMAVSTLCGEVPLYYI

[6] = target: the molecule itself; assay: multi-angle light scattering; proSP-C BRICHOS alone in solution; molecular mass read out; conditions not stated
[7] = scale: monomer units in the fibril per BRICHOS molecule

Kd (Aβ42 amyloid fibrils): 192 nM
stoichiometry N (Aβ42 amyloid fibrils; scale: Aβ42 monomer units on the fibril per BRICHOS molecule): 8
Kd [1]: 696 nM
stoichiometry N ([1]; scale: monomer units of α-Syn per BRICHOS molecule): 38
Molecule: WT proSP-C BRICHOS domain (residues 90-197) (from UniProt P11686 90-197) (domain or fragment)

residence time on the fibrils [2]: 350 to 400 ms
residence time on the fibrils (three exemplary molecules) [2]: 100 s
Kd [3]: 450000 nM
Kd (Aβ42 amyloid fibrils): 21.4 nM
stoichiometry N (Aβ42 amyloid fibrils; [7]): 6
percent of fibril-bound monomeric α-Syn released (100 µM Var II) [4]: 25%
percent of fibril-bound monomeric α-Syn released (300 µM Var II) [4]: 50%
percent of fibril-bound monomeric α-Syn released (500 µM Var II) [4]: 65%
Kd [1]: 450 nM
stoichiometry N ([1]; scale: monomer units in the fibrils per BRICHOS molecule): 7
Molecule: proSP-C BRICHOS (K114I, R139Q) (from UniProt P11686 90-197) (domain or fragment)

Kd [3]: 1.26 nM
Kd [1]: 1260 nM
stoichiometry N [1, 7]: 18
Molecule: proSP-C BRICHOS (E135R, R139E) (from UniProt P11686 90-197) (domain or fragment)

Kd [5]: ~800000 nM
B1: client peptide B (peptide)
peptide: VLEMGSGSGSKKVVVVVKK
notes: model client peptide, designed to be able to form a beta hairpin; said to represent part of the transmembrane helical segment of native proSP-C; Dissolved in DMSO at 20 mM stock; also called substrate peptide; source: synthetic peptide; bought: GL Biochem, Shanghai

B2: WT proSP-C BRICHOS domain (residues 90-197) (domain or fragment, UniProt P11686 90-197, looked up)
chain: T1 sequence (looked up) with I25K, Q50R
modifications: Alexa647 label in the microfluidic diffusional sizing (site not stated); 15N,13C labelled for NMR
notes: BRICHOS domain of the lung surfactant protein C precursor (proSP-C), residues 90-197; Homotrimer by light scattering, diffusional sizing and NMR structure; Disulfide bridges 120-148 and 121-189 were restrained in the structure calculation; BMRB entries 34811 and 34813 are printed without saying which is the trimer; also called WT BRICHOS; trimeric proSP-C BRICHOS; not shown: His tag, N-terminal, …
stoichiometry N [6]: 3
